Article PMC11839890 (European Journal of Nuclear Medicine and Molecular Imaging, 2024)
Where two headings read alike, the source gives them in different places. Non-standard residues stand in square brackets, D forms with d. *: point of attachment. DOTA = O=C(O)CN1CCN(CC(=O)O)CCN(CC(=O)*)CCN(CC(=O)O)CC1

Tests used:
[1] = in vivo; conditions: mouse; for tissue uptake at 4 h: BALB/c nude (athymic), total radioactivity, uptake in A431-CCK2R xenografts
Procedure: Biodistribution studies were performed in female athymic BALB/c nude mice (Charles River Laboratories, Sulzfeld, Germany) with A431-CCK2R xenografts induced and animals treated as described previously. The study was approved by the Austrian Ministry of Science (2022–0.351.553). […] Statistical analysis was performed on the data sets using the unpaired two-tailed t-test with a significance level of 0.05.

[2] = test system: A431-CCK2R xenografts; assay: Biodistribution up to 7 days p.i. / preclinical pharmacokinetics in A431-CCK2R xenografted BALB/c nude mice; type: in vivo; conditions: mouse, in vivo
Procedure: (§1) The study was approved by the Dutch animal ethics committee (CCD) of the Radboud University and the Nijmegen Medical Centre animal ethics committee (RUDEC) (2020–0007–020). Mice were inoculated with A431-CCK2R cells (2 × 10^6 in 200 μL DMEM medium) at an age of 8–10 weeks. […] Samples were collected, weighted and measured in a gamma counter together with a 1% standard of the injected dose. Results were expressed as percentage of injected activity per gram of tissue (%IA/g), and tumour-to-organ activity ratios were calculated for selected organs. The biodistribution data were used to calculate the kinetics in mouse organs and A431-CCK2R xenografts. A detailed description of the dosimetry calculations and extrapolation from mice to humans can be found in the Supplementary Materials. A one-compartment distribution model was used to characterize the time-activity curves, which were fitted with a single-exponential function implementing Graphpad Prism software. […] Animal dosimetry was performed using the RADAR mouse phantom. The mouse phantom organ weights were used to translate the time-integrated activity concentration coefficients [TIAC] into the regular TIAC. The absorbed dose per given activity was calculated using the MIRD equation (medical internal radiation dose) and the S values obtained from the 25 g RADAR mouse phantom.

[3] = as above; type: in vivo; conditions: female, mouse, iv, total radioactivity
Procedure: as §1

[4] = target: T1, human CCK2R (Homo sapiens, UniProt P32239); assay: Saturation binding on A431-CCK2R cells; conditions: 4°C, read-out: dissociation constant (Kd)
T1 construct: expressed in transfected cells; host or cells: A431 human epidermoid carcinoma cells, stably transfected (plasmid pCR3.1), provided by Dr. Luigi Aloj
T1 sequence (P32239 1-447): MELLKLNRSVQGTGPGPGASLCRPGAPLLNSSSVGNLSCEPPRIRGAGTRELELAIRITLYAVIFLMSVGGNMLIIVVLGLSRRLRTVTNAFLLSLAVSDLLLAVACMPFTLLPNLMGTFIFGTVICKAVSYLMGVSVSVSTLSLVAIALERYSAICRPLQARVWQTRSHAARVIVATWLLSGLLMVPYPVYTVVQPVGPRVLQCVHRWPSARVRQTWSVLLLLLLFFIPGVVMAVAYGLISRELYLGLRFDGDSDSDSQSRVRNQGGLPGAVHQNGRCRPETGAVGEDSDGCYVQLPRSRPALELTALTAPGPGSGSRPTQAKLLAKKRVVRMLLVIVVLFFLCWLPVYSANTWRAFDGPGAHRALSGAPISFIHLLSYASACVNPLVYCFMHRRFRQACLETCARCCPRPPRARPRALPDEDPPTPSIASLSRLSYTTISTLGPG
Procedure: The saturation binding assay was performed on A431-CCK2R cells plated 2 days prior to the assay at a density of 1×10^6 cells per well in 6-well plates. […] Before recovering the cell-associated radioactivity from the wells by using 1 M NaOH (two times), cells were washed twice with ice-cold phosphate-buffered saline (PBS). The radioactivity was then counted using a gamma counter (2480 Wizard2 3”, PerkinElmer Life Sciences and Analytical Instruments, formerly Wallac Oy, Turku, Finland) and non-specific binding was subtracted. For normalization to the number of cells, cells from three different wells were trypsinized and counted by Beckman Coulter Vi-CELL AS cell viability analyser (Beckman Coulter, Fullerton, CA, USA). Three independent assays were performed in triplicate. Binding curves were analysed using GraphPad Prism version 10.1.2 for Windows (GraphPad Software, Boston, Massachusetts USA).

[5] = test system: tumour; conditions: in vivo; cited from earlier work
[6] = test system: A431-CCK2R cells; conditions: cited from earlier work; for Bmax: A431-CCK2R cells, nM printed only with the first value of the sentence; for Kd: same cell line (A431-CCK2R), nM printed only with the PP-F11N value
[7] = BALB/c nude (athymic), in vivo, 20 pmol of peptide, Uptake, A431-CCK2R tumour
[8] = BALB/c nude (athymic), in vivo, 20 pmol of peptide, Uptake, blood
[9] = BALB/c nude (athymic), in vivo, 20 pmol of peptide, Uptake, heart
[10] = BALB/c nude (athymic), in vivo, 20 pmol of peptide, Uptake, kidney
[11] = BALB/c nude (athymic), in vivo, 20 pmol of peptide, Uptake, liver
[12] = BALB/c nude (athymic), in vivo, 20 pmol of peptide, Uptake, lung
[13] = BALB/c nude (athymic), in vivo, 20 pmol of peptide, Uptake, pancreas
[14] = BALB/c nude (athymic), in vivo, 20 pmol of peptide, Uptake, stomach
[15] = athymic BALB/c nude, in vivo, Uptake, femur
[16] = athymic BALB/c nude, in vivo, Uptake, heart
[17] = athymic BALB/c nude, in vivo, Uptake, intestine
[18] = athymic BALB/c nude, in vivo, Uptake, muscle
[19] = athymic BALB/c nude, in vivo, Uptake, spleen

Compound: CCCC[C@@H](C(=O)N[C@@H](CC(=O)O)C(=O)N[C@@H](Cc1cccc2ccccc12)C(N)=O)N(C)C(=O)[C@H](Cc1c[nH]c2ccccc12)NC(=O)CNC(=O)[C@H](Cc1ccc(O)cc1)NC(=O)[C@H](C)NC(=O)[C@@H](CCC(=O)O)NC(=O)CN1CCN(CC(=O)O)CCN(CC(=O)O)CCN(CC(=O)O)CC1 [[^177Lu]Lu-DOTA-MGS5, metal not drawn]
- tissue uptake at 4 h [1]: 22.9 ± 4.7 %ID/g
- tissue uptake at 4 h ([1]; female, iv, 20 pmol peptide): 31.9 ± 12.8 %ID/g
- tissue uptake ([1]; female, athymic BALB/c nude, tumour uptake): ~23 %ID/g
- Uptake, blood ([2]; female, BALB/c nude (athymic), iv, 20 pmol of peptide, 24 h): 0.013±0.002 %IA/g
- half-life of blood clearance ([2]; female, athymic BALB/c nude): 2.8 h
- biological half-life of clearance from the tumour [2]: 18.2 h
- tissue uptake at 1 h ([3]; BALB/c nude (athymic), A431-CCK2R tumour xenograft, 20 pmol of peptide, A431-CCK2R xenograft, 1h p.i., i.v., n = 5, read-out: Uptake, A431-CCK2R tumour): 68.1 ± 10 %ID/g
- tissue uptake at 24 h [3, 7]: 28.9 ± 7.2 %ID/g
- tissue uptake at 72 h [3, 7]: 12.6 ± 0.3 %ID/g
- tissue uptake at 168 h [3, 7]: 2 ± 0.5 %ID/g
- tissue uptake at 1 h [3, 8]: 1.9 ± 0.4 %ID/g
- tissue uptake at 24 h [3, 8]: 0.01 ± 0.002 %ID/g
- tissue uptake at 72 h [3, 8]: 0.004 ± 0.002 %ID/g
- tissue uptake at 168 h [3, 8]: 0.01 ± 0.01 %ID/g
- tissue uptake at 1 h [3, 9]: 0.8 ± 0.2 %ID/g
- tissue uptake at 24 h [3, 9]: 0.05 ± 0.01 %ID/g
- tissue uptake at 1 h [3, 10]: 3.7 ± 0.4 %ID/g
- tissue uptake at 24 h [3, 10]: 2 ± 0.2 %ID/g
- tissue uptake at 72 h [3, 10]: 1 ± 0.1 %ID/g
- tissue uptake at 168 h [3, 10]: 0.4 ± 0.1 %ID/g
- tissue uptake at 1 h [3, 11]: 1.3 ± 0.2 %ID/g
- tissue uptake at 24 h [3, 11]: 0.5 ± 0.1 %ID/g
- tissue uptake at 72 h [3, 11]: 0.2 ± 0.1 %ID/g
- tissue uptake at 168 h [3, 11]: 0.08 ± 0.01 %ID/g
- tissue uptake at 1 h [3, 12]: 4.6 ± 1.9 %ID/g
- tissue uptake at 24 h [3, 12]: 0.2 ± 0.1 %ID/g
- tissue uptake at 72 h [3, 12]: 0.1 ± 0.04 %ID/g
- tissue uptake at 168 h [3, 12]: 0.04 ± 0.01 %ID/g
- tissue uptake at 1 h [3, 13]: 1.7 ± 0.5 %ID/g
- tissue uptake at 24 h [3, 13]: 0.9 ± 0.2 %ID/g
- tissue uptake at 72 h [3, 13]: 0.7 ± 0.2 %ID/g
- tissue uptake at 168 h [3, 13]: 0.6 ± 0.1 %ID/g
- tissue uptake at 1 h [3, 14]: 8.1 ± 0.9 %ID/g
- tissue uptake at 24 h [3, 14]: 4.9 ± 0.4 %ID/g
- tissue uptake at 168 h [3, 14]: 1.3 ± 0.1 %ID/g
- tissue uptake at 1 h [3, 15]: 0.3 ± 0.1 %ID/g
- tissue uptake at 24 h [3, 15]: 0.052 ± 0.008 %ID/g
- tissue uptake at 72 h [3, 15]: 0.032 ± 0.007 %ID/g
- tissue uptake at 168 h [3, 15]: 0.06 ± 0.02 %ID/g
- tissue uptake at 72 h [3, 16]: 0.026 ± 0.005 %ID/g
- tissue uptake at 168 h [3, 16]: 0.018 ± 0.004 %ID/g
- tissue uptake at 1 h [3, 17]: 1.1 ± 0.3 %ID/g
- tissue uptake at 24 h [3, 17]: 0.17 ± 0.02 %ID/g
- tissue uptake at 72 h [3, 17]: 0.1 ± 0.01 %ID/g
- tissue uptake at 168 h [3, 17]: 0.04 ± 0.01 %ID/g
- tissue uptake at 1 h [3, 18]: 0.3 ± 0.2 %ID/g
- tissue uptake at 24 h [3, 18]: 0.04 ± 0.01 %ID/g
- tissue uptake at 72 h [3, 18]: 0.01 ± 0.003 %ID/g
- tissue uptake at 168 h [3, 18]: 0.018 ± 0.005 %ID/g
- tissue uptake at 1 h [3, 19]: 0.6 ± 0.1 %ID/g
- tissue uptake at 168 h [3, 19]: 0.09 ± 0.01 %ID/g
- Kd [4]: 5.25 ± 1.61 nM

Compound: [^111In]In-DOTA-MG11: 111In-labelled DOTA-MG11 (DOTA-DGlu-Ala-Tyr-Gly-Trp-Met-Asp-Phe-NH2) ({DOTA}-[dE]AYGWMDF-NH2; also: 111In complexed by DOTA)
- tumour uptake [5]: 2–3 % ID/g

Compound: [^111In]In-DOTA-PP-F11: 111In-labelled DOTA-(DGlu)6-Ala-Tyr-Gly-Trp-Met-Asp-Phe-NH2 (AYGWMDF; 111In-DOTA-(DGlu)6, C-terminal amide; printed: Ala-Tyr-Gly-Trp-Met-Asp-Phe-)
- Bmax [6]: 1.21 ± 0.06 nM
- Kd [6]: 15.9 ± 2.2 nM

Compound: [^177Lu]Lu-DOTA-PP-F11: 177Lu-labelled DOTA-(DGlu)6-Ala-Tyr-Gly-Trp-Met-Asp-Phe-NH2 (AYGWMDF; 177Lu-DOTA-(DGlu)6, C-terminal amide; printed: Ala-Tyr-Gly-Trp-Met-Asp-Phe-)
- Bmax [6]: 0.65 ± 0.06 nM
- Kd [6]: 41.7 ± 9.7 nM
